Experimental data taken from patent US20190127478A1 (published 2019).

Tests used:
Assay in all cases: Octet RED 96
FcgRIIIaV = target: FcgRIIIaV
FcRn = target: FcRn
FcgRIa = target: FcgRIa

Kd (FcgRIIIaV): 740 nM
Kd (FcRn): 9.6 nM
Kd (FcgRIa): 750 nM
B1: BCD-100 IgG1* (antibody)
heavy: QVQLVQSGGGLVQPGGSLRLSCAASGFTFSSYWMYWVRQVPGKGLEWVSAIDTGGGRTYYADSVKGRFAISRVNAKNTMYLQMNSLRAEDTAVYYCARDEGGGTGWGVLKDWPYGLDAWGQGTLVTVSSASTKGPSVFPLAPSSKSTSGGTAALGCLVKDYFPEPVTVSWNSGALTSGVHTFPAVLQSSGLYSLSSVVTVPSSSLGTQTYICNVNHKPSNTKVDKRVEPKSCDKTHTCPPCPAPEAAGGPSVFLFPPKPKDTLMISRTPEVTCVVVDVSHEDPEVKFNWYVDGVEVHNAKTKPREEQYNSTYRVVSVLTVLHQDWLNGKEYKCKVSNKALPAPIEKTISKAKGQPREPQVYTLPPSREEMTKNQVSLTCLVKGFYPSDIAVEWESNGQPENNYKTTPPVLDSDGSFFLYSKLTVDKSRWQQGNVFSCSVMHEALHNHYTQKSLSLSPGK
light: QPVLTQPLSVSVALGQTARITCGGNNIGSKNVHWYQQKPGQAPVLVIYRDSNRPSGIPERFSGSNSGNTATLTISRAQAGDEADYYCQVWDSSTAVFGTGTKLTVLQRTVAAPSVFIFPPSDEQLKSGTASVVCLLNNFYPREAKVQWKVDNALQSGNSQESVTEQDSKDSTYSLSSTLTLSKADYEKHKVYACEVTHQGLSSPVTKSFNRGEC
